Results on 1 substance are retold here after publication PMC11728977, “Crystallographic, kinetic, and calorimetric investigation of PKA interactions with L-type calcium channels and Rad GTPase” (The Journal of Biological Chemistry, 2024).

The term Km denotes the concentration of substrate that gives half-maximal velocity. Usually kcat stands for the number of substrate molecules converted per active site and unit of time at saturation. Usually kcat/Km stands for the second-order rate constant that governs catalysis at low substrate concentration.

Series [1] concerns C[C@H](NC(=O)CN)C(=O)NCC(=O)N[C@@H](CCCNC(=N)N)C(=O)N[C@@H](CCC(=O)O)C(=O)N[C@@H](CCCNC(=N)N)C(=O)N[C@@H](CC(=O)O)C(=O)N[C@@H](CCCNC(=N)N)C(=O)N[C@@H](CCCNC(=N)N)C(=O)N[C@@H](CCCNC(=N)N)C(=O)NCC(=O)N[C@@H](CO)C(=O)N[C@H](C(=O)N1CCC[C@H]1C(=O)N[C@@H](Cc1c[nH]c2ccccc12)C(=O)O)[C@@H](C)O. The experiment in a line: purified protein, by the assay type. Particulars: other: ADP-Glo; 3 nM PKAc, 1 mM ATP, 5 mM Mg2+, substrate 0-256 μM, room temperature 30 min; Michaelis-Menten fit; mean ± SD of n = 3 or 4; pH 7.4.
Method: (§1) We used enzyme kinetics to investigate the activity of catalytic subunit of PKA (PKAc) toward the three target sites within the C terminus of CaV1.2. We performed discontinuous kinase assays using an ADP-GloMax Assay kit.
(§2) Kinase assays were conducted using an ADP-Glo Kinase Assay Kit (Promega). […] Therefore, we performed assays with excess ATP (1 mM) and Mg^2+ (5 mM) to saturate PKAc prior to substrate binding. Reagents were prepared as described in the kit, aliquoted, and frozen at −20 °C prior to use. Reactions were conducted in 384-well solid white polystyrene microplates (Corning). Peptide substrates and EFPreIQ were dissolved and/or diluted to 800 μM using 50 mM Hepes (pH 7.4), 150 mM KCl, 5 mM MgCl2, and 4 mM TCEP. […] For peptides lacking tryptophan, the amount of volume needed to achieve a concentration of 800 μM was calculated prior to dissolving. The peptides/substrate was 2-fold serially diluted using the same buffer to create 11 reactions per curve ranging from 0 to 256 μM. ATP was added to each reaction to achieve a final concentration of 1 mM. Reactions were initiated by the addition of thawed PKAc at a final concentration of 3 nM at a final well volume of 20 μl. After allowing reactions to occur at room temperature for 30 min, 3 × 5 ml from each reaction in a curve was taken and mixed with 5 ml ADP-Glo Reagent for a total of three technical replicates per biological replicate. After 40 min, 10 ml of kinase detection reagent was added to each technical replicate and, after waiting 60 min, relative luminescence unit were measured using a VICTOR X4 Multilabel Plate Reader (PerkinElmer).
(§3) The relative luminescence unit values were converted to specific activity values via interpolation of a standard curve that was created in accordance with the manufacturer’s protocol. The three technical replicates were averaged to calculate a biological replicate value and plotted against peptide concentration using GraphPad 9 (Prism) software (https://www.graphpad.com/updates/prism-900-release-notes). Technical replicate values resulting from experimental error were removed from the dataset and subsequent averaging. […] The Michaelis–Menten kinetics fitting function was used to generate a nonlinear regression to calculate both a Km constant and Vmax value for each biological replicate curve. These Km constant and Vmax values were averaged and SDs are reported. Figures displaying data points and Michaelis–Menten curves depict the average specific activity values calculated from all biological replicates in the three or four experiments (n = 3 or n = 4) per peptide (n = 4 for Ser1981 and Ser272 peptides, n = 3 for all others).

Series [2] concerns CC(C)C[C@H](NC(=O)[C@H](Cc1c[nH]cn1)NC(=O)[C@H](Cc1ccccc1)NC(=O)[C@H](CO)NC(=O)[C@H](C)NC(=O)[C@H](CCCNC(=N)N)NC(=O)[C@H](CCCNC(=N)N)NC(=O)CNC(=O)[C@H](CC(C)C)NC(=O)[C@H](CO)NC(=O)[C@H](C)NC(=O)[C@H](CO)NC(=O)[C@H](CCCNC(=N)N)NC(=O)[C@H](CC(C)C)NC(=O)[C@H](Cc1ccccc1)NC(=O)CNC(=O)[C@@H](N)CCCNC(=N)N)C(=O)O. Briefly: purified protein, by the assay type. Particulars: other: ADP-Glo; 3 nM PKAc, 1 mM ATP, 5 mM Mg2+, substrate 0-256 μM, room temperature 30 min; Michaelis-Menten fit; mean ± SD of n = 3 or 4; pH 7.4. In general terms: ADP-Glo turns the ADP formed in a reaction into a luminescent signal.
Method: as §1, §2, §3

For “PKAc (catalytic subunit of PKA, PKAcα 16-351) (Mus musculus)”, in series [1], the Michaelis-Menten constant (Km) amounted to 19.0 ± 6.7 µM, the kcat is 16.2 ± 0.8 s⁻¹ and the kcat/Km came to 900000 ± 300000 M⁻¹ s⁻¹. Besides, in series [2], the Michaelis-Menten constant (Km) was determined as 8.1 ± 2.5 µM, the turnover number (kcat) was determined as 15.5 ± 1.2 s⁻¹ and the kcat/Km turned out to be 1.9e+06 ± 600000 M⁻¹ s⁻¹.
